Target: MUC1 cytoplasmic tail construct (MUC1 with the tandem repeat domain deleted) (human)
Assay: co-IP

| Substance | fold of co-precipitated protein against the input control |
| --- | --- |
| c-Jun (from UniProt P05412 1-331) (natural protein) | 5.6 fold |
| p53 (from UniProt P04637 1-393) (natural protein) | 6.9 fold |
